Data reported in patent US20180057551A1 (AMYLONIX, published 2018).

Biological target: T1, anti-ABD goat antibody (produced in-house)
T1 construct: also called Anti-ABD surface
Experiment: SPR Biacore 2000, periplasmic sample over immobilised anti-ABD goat antibody
Method: A selection of Aβ peptide binding polypeptides was subjected to an analysis of the response against biotinylated hAβ₁₋₄₀ using a Biacore 2000 instrument (GE Healthcare). Biotinylated anti-ABD goat antibody (produced in-house) and N-terminally biotinylated hAβ₁₋₄₀ (AnaSpec cat. no. AS-24648) were immobilized in separate flow cells on a streptavidin coated chip (Biacore Sensor Chip SA, cat. no. BR100032) using HBS-EP as running buffer (0.01 M HEPES pH 7.4, 0.15 M NaCl, 3 mM EDTA, 0.005% v/v Surfactant P20, GE Healthcare, cat. no. BR100188). The ligand immobilization levels on the surfaces were approximately 2000 RU for the anti-ABD antibody and 225 RU for hAβ₁₋₄₀. One flow cell surface on the chip was used as blank during analyte injections. HBS-EP was used as running buffer and the flow rate was 25 μl/min. The analytes, i.e. periplasmic preparations of Aβ peptide binding polypeptides as described above, were each diluted 15× in HBS-EP buffer and injected for 10 min, followed by dissociation in running buffer for 5 min. After dissociation, the surfaces were regenerated with 2 pulses of 10 mM glycin pH 2.0. […]
The interactions of a subset of Z variants with anti-ABD goat antibody and hAβ₁₋₄₀ were analyzed in a Biacore instrument by injecting dilutions of periplasmic samples.

Response RU: 19.8 RU
B1: albumin binding domain GA3 from streptococcal Protein G (ABD), periplasmic control (other)
chain: LAEAKVLANRELDKYGVSDYYKNLINNAKTVEGVKALIDEILAALP
notes: periplasm containing ABD only; also called negative control; blank control
